Laboratory results reported in patent publication US20050261472A1, “Binding moieties for fibrin” (Dyax Corp., priority 1999, published 2005).
Bridge positions count the residues as written; N and C are the ends. Peptide text beside a SMILES is read from it.

Legend:
[1] = target: T1, dried fibrin (Homo sapiens, UniProt P02671+P02675+P02679); test: dissociation constant against dried fibrin (free peptide by mass spectrometry); type: binding
T1 construct: Thrombin cleavage at the Arg16-Arg17 bond in the Ax chains and at the Arg14-Gly15 bond on the BP chains releases fibrinopeptides A and B; host or cells: fibrinogen solution clotted with thrombin in 96-well plates and dried at 37 C
T1 sequence (P02671 36-629 limits assumed): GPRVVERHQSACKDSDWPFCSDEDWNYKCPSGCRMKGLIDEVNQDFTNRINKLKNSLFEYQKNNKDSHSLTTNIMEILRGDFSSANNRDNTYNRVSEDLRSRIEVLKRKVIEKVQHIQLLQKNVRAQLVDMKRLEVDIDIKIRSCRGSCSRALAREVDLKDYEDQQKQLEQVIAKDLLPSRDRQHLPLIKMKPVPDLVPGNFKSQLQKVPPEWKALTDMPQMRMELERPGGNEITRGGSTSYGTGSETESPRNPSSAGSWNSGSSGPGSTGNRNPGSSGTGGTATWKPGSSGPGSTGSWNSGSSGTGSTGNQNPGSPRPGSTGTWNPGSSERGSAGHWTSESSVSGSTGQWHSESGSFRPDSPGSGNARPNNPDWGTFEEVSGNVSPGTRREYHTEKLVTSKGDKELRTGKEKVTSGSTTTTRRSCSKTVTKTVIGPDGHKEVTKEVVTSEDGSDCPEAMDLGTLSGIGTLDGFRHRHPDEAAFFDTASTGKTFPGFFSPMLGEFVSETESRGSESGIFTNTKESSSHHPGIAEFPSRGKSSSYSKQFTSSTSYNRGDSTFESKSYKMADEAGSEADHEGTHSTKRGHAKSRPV
T1 sequence (P02675 45-491 limits assumed): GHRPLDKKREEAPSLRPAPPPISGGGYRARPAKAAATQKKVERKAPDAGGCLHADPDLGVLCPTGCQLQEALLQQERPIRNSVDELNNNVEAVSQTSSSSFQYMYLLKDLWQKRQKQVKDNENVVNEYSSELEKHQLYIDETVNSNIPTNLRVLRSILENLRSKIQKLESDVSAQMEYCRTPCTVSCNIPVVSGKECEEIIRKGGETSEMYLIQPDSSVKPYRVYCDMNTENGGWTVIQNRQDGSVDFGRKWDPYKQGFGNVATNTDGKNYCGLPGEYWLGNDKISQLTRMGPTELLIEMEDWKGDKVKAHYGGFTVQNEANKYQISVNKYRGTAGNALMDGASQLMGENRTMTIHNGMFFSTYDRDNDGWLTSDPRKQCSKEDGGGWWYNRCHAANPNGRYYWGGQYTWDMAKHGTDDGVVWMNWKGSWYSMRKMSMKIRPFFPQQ
T1 sequence (P02679 27-437 isoform P02679-2 limits assumed): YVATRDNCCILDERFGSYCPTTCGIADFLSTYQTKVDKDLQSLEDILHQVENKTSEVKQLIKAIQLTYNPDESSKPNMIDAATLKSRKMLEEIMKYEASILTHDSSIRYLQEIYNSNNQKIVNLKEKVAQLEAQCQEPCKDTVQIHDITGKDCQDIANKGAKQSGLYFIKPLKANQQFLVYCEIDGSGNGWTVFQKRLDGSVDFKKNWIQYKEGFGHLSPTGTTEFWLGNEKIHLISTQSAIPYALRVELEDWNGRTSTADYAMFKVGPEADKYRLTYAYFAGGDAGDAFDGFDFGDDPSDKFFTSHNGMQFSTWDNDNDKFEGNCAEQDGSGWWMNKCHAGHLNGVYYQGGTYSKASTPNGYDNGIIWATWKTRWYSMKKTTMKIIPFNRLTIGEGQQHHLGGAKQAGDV
Protocol: A fibrinogen solution was prepared at 10 mg/ml (or at twice the concentration of fibrin desired) in TBS buffer (50 mM Tris, 150 mM NaCl, pH 7.4). The fibrinogen solution typically contained ˜17 mM citrate. Subsequently, a solution was prepared containing 2 U/ml thrombin, 20 mM CaCl2, and 5 mM ε-aminocaproic acid in TBS. The fibrinogen solution and thrombin solution were mixed 1:1 in the wells of a 96-well plate, aliquoting 50 μL of each solution in each well (total volume=100 μL). The plates were evaporated to dryness overnight at 37° C. The polypeptide to be tested, dissolved in water, was added to each well at concentrations between 1-200 μM. A typical binding assay contained 24 points at concentrations of 2, 4, 6, 8, 10, 12, 14, 17, 20, 23, 26, 30, 35, 40, 45, 50, 60, 70, 80, 100, 125, 150, 175, and 200 μM. The plate containing the peptide and (rehydrated) dried fibrin was covered and incubated at 37° C. on a shaker table for 2 hours.
The supernatant in each well was removed by pipette and the concentration of the polypeptide was measured by mass spectrometry. The ion current detected at the mass of the peptide was monitored after injection of a sample into the mass spectrometer. The area-under-the-peak was quantitated and compared to standards of known concentration. The concentration of peptide in the supernatant is equal to the concentration of free peptide. The concentration of bound peptide was determined by subtracting the concentration of free peptide from the total (starting) concentration. A plot of [Bound Peptide] vs. [Free Peptide] was used to determine the Kd and the concentration of bound peptide at saturation. The curve was fit to the equation: [Bound]=N×[Free]/(Kd+[Free]) where [Bound] is the concentration of bound polypeptide, [Free] is the concentration of free polypeptide, Kd is the dissociation constant (equal to the reciprocal of Ka) and N is the concentration of binding sites. The number of binding sites per fibrin molecule was equal to the lo concentration of binding sites determined by the [Bound Polypeptide] vs. [Free Polypeptide] plot, divided by the concentration of fibrin (15 μM) used in the assay.

[2] = target: T2, DD(E) (Homo sapiens, UniProt P02671+P02675+P02679); test: dissociation constant against fibrin-derived polypeptide DD(E); type: binding; settings: read-out: Kd DD(E)
T2 construct: host or cells: purchased fibrinogen clotted with thrombin, digested with plasmin, then purified by ammonium sulfate cuts and Sephacryl S200
Protocol: The soluble fibrin-derived polypeptide DD(E) was prepared following a modification of a published method (Moskoitz and Budzynksi, Biochemistry, 33: 12937-12944 (1994) and references therein). Fibrinogen containing a Factor XIII trace impurity (1 g, Grade L; purchased from American Diagnostica) was dissolved in TBS buffer and dialyzed overnight against TBS containing 5 mM citrate. The fibrinogen concentration was adjusted to 3.0 mg/ml and CaCl2 was added to a concentration of 10 mM. Clotting of the fibrinogen was initiated by the addition of thrombin to 0.5 U/ml and the clot was incubated for 3 hours at 37° C. The clot was cut up with a spatula to release water and to concentrate the clot. The clot pieces were washed twice with TBS.Ca buffer (TBS containing 2 mM CaCl2) and were centrifuged at 4,000×g to compact the clots between washes. The clot material was resuspended in 250 ml TBS containing 25 mM CaCl2 and 2 K.I.U. plasmin per mg fibrin. The clots were digested overnight at 20° C. Undigested clot was removed by pipette, and the supernatant was shaken with 10 ml of Lysine Sepharose (Pharmacia) for 30 minutes and filtered to remove the resin. Aprotinin was added to the filtrate to a concentration of 500 U/μL. Ammonium Sulfate was added to 30% saturation and the precipitated protein was removed by centrifugation. More ammonium sulfate was added to the supernatant to a final concentration of 50% saturation, and the precipitated protein was concentrated by centrifugation. The pellets, containing DD(E), were resuspended in a small volume of buffer (50 mM Tris, 150 mM NaCl, 2 mM CaCl2) (<10 ml) and chromatographed on a Sephacryl S200 (Pharmacia) size exclusion column (5×100 cm) in the same buffer. Fractions of protein eluted from the column were assayed by SDS-PAGE for DD(E). DD(E) contains subunits of 55 kD (Fragment E) and 190 kD (Fragment DD). […]
Dissociation constants were determined against DD(E) as described above.

[3] = target: T3, fibrin (Homo sapiens, UniProt P02671+P02675+P02679); test: dried fibrin plate ELISA of phage isolates; type: binding; settings: phage isolates from TN7 library; symbols not defined
T3 construct: Thrombin cleavage at the Arg16-Arg17 bond in the Ax chains and at the Arg14-Gly15 bond on the BP chains releases fibrinopeptides A and B; host or cells: fibrinogen solution clotted with thrombin in 96-well plates and dried at 37 C
T3 sequence (P02671 36-629 limits assumed): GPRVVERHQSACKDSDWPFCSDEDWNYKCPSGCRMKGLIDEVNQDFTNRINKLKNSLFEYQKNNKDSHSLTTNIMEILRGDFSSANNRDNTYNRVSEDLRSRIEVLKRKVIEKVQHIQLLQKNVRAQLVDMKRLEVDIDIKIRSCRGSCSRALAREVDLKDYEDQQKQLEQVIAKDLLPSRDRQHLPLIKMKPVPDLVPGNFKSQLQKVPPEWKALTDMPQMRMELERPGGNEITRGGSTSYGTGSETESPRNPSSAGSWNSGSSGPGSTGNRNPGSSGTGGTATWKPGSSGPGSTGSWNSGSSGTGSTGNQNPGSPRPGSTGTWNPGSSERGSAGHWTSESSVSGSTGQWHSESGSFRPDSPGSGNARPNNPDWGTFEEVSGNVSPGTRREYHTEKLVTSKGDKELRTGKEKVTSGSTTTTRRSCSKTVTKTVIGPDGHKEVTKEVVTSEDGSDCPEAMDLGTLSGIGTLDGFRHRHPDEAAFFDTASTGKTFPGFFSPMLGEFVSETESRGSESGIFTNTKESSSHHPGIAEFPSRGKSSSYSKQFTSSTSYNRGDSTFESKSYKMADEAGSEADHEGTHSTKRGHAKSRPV
T3 sequence (P02675 45-491 limits assumed): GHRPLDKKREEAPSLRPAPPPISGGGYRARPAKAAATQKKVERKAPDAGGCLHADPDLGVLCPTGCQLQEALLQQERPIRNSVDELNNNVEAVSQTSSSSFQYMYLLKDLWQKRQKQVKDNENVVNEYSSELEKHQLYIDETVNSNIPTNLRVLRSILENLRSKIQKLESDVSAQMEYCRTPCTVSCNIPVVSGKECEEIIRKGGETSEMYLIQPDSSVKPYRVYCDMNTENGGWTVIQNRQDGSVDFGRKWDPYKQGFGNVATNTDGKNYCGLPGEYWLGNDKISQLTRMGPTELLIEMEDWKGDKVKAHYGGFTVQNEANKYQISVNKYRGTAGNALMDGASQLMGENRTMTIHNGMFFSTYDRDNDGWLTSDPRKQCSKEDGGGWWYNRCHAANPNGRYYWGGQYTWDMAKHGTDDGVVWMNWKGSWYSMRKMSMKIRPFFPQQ
T3 sequence (P02679 27-437 isoform P02679-2 limits assumed): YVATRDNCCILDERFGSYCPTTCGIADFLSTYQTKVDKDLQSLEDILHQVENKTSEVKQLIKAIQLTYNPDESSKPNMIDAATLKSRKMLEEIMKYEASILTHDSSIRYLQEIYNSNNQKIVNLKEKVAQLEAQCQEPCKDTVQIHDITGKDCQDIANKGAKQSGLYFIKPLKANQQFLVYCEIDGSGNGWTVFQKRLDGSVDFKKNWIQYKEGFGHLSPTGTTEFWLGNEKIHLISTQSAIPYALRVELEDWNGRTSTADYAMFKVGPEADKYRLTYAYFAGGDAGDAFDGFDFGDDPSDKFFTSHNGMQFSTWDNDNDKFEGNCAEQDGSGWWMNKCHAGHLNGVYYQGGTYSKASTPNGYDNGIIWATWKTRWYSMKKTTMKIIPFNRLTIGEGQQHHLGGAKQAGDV
Protocol: For screening libraries to isolate binding moieties for fibrin, two fibrin targets, i.e., synthetic fibrin clots and then a soluble fibrin fragment, DD(E), were prepared. To prepare fibrin for screening, dilute fibrin clots were formed in the wells of a 96-well plate, dried down to a thin layer, and then rehydrated prior to library screening. In a typical procedure, a 0.15 mg/ml fibrinogen solution was prepared in TBS buffer (50 mM Tris, 150 mM NaCl, pH 7.4). A solution containing 2 U/ml thrombin, 10 mM CaCl2, and 5 mM ε-aminocaproic acid in TBS was prepared. The fibrinogen solution and thrombin solution were mixed 1:1 in the wells of a 96-well plate, aliquoting 25 μL of each solution in each well (total volume=50 μL). The plates were evaporated to dryness by incubating them at 37° C. overnight. Just before a phage library was added to the dried fibrin target, the fibrin wells were washed three times for 10 minutes with phage blocking buffer (TBS containing 2 mM CaCl2, 0.1% Tween-20, and 0.1% human serum albumin (HSA)).
After five rounds of selection, the eluted phage were propagated and a portion plated to isolate phage plaques arising from individual clones. Ninety such clones were selected randomly, propagated, and tested individually for binding to fibrin in a dried fibrin plate assay. Dried fibrin plates were prepared as described above for the library screening. Phage samples (˜10^9 phage each) were incubated in the dried fibrin plate wells in binding buffer (50 mM Tris, 150 mM NaCl, 2 mM CaCl2, 0.05% Tween-20) containing 0.1% HSA. After 1 hour, the plates were washed 5 times with binding buffer. Anti-M13 antibody conjugated to horseradish peroxidase (Pharmacia) was added at 1/5000 dilution in binding buffer to the wells and incubated with the fibrin for 1 hour. The wells were again washed 5 times with binding buffer and the presence of the antibody/phage/fibrin complex was measured with HRP calorimetric reagents (3,3′,5,5′-tetrarnethylbenzidine (TMB) and H2O2). A high absorbance at 595 nm (due to oxidized TMB) was indicative of a tight phage/fibrin interaction, and phage clones corresponding to those wells were identified as bearing fibrin-binding moieties.
The amino acid sequence data from these phage isolates were sorted according to the degree of similarity and response in the fibrin ELISA assay.

[4] = target: DD(E) soluble fibrin-derived polypeptide (UniProt P02671); test: Kd against DD(E) target, 'as described above'

CC(C)C[C@H](NC(=O)[C@@H]1CSSC[C@H](NC(=O)[C@H](C)NC(=O)[C@@H](N)Cc2ccccc2)C(=O)N[C@@H](Cc2c[nH]cn2)C(=O)N[C@@H](Cc2ccc(O)cc2)C(=O)N[C@@H](Cc2ccc(O)cc2)C(=O)NCC(=O)N[C@@H]([C@@H](C)O)C(=O)N1)C(=O)N[C@@H](Cc1c[nH]cn1)C(N)=O [SEQ ID NO: 7, FACHYYGTCLH] (H-FACHYYGTCLH-NH2; disulfide 3-9) was tested, and the Kd [1] was 23 µM and the Kd [2] was 7.3 µM.

In the case of H-LPSDYYGTSLD-NH2 [compound 38], the Kd [1] is reported as > 100 µM and the Kd [2] is reported as > 100 µM.

For “10 (FSCWYSLHCHR; synthetic fibrin binding peptide) [compound 10]”, the relative binding [3] was “+ + +”.

WFHCPYDLCHIL (peptide, not shown: large carriers) gave a Kd [4] of 1400 nM.

In the case of QWECPYGLCWIQ (peptide, not shown: large carriers), the Kd [4] is reported as 740 nM.

Work on NHGCYNSYGVPYCDYS (peptide, not shown: large carriers) yielded a Kd [4] of 2700 nM.

Molecule RFLCYDSYYHWWCSHH (peptide, not shown: large carriers) has a Kd [4] of 10000 nM.
